Reference: US9493781B2, “Synthetic brassica-derived chloroplast transit peptides” (DOW AGROSCIENCES LLC, priority 2012, dated 2016)

What was measured:
[1] = test system: YFP protein; experiment: Western blot of infiltrated tobacco leaves (YFP expression, transit peptide processing); design: species or system Nicotiana benthamiana; settings: infiltrated tobacco leaf tissue
Procedure: Samples of the infiltrated tobacco plants were assayed via Western blotting. Leaf punches were collected and subjected to bead-milling. About 100-200 mg of leaf material was mixed with 2 BBs (steel balls) (Daisy; Rogers, Ark.) and […] of PBST for 3 minutes in a Kleco™ bead mill. The samples were then spun down in a centrifuge at 14,000×g at 4° C. The supernatant was removed and either analyzed directly via Western blot or immunoprecipitated. The immunoprecipitations were performed using the Pierce Direct IP Kit™ (Thermo Scientific; Rockford, Ill.) following the manufacturer's protocol. Approximately, 50 μg of anti-YFP was bound to the resin. The samples were incubated with the resin overnight at 4° C. Next, the samples were washed and eluted the following morning and prepped for analysis by combining equal volumes of 2×8M Urea sample buffer and then boiling the samples for 5 minutes. The boiled samples were run on a 4-12% SDS-Bis Tris gel in MOPS buffer for 40 minutes. The gel was then blotted using the Invitrogen iBlot™ (Life Technologies; Carlsbad, Calif.) following the manufacturer's protocol. The blotted membrane was blocked for 10 minutes using 5% non-fat dry milk in PBS-Tween solution. The membrane was probed with the primary antibody (monoclonal anti-GFP in rabbit) used at a 1:1000 dilution in the 5% non-fat dry milk in PBS-Tween solution for 1 hour. […]

[2] = test system: tobacco (cv. Petit Havana); experiment: Postemergence glyphosate tolerance of dgt-28 transformed T1 and T2 tobacco; format: in vivo; settings: 14 DAT, 2240 g ae/ha glyphosate (DURANGO DMA)
Excerpt: Postemergence herbicide tolerance in dgt-28 transformed T1 tobacco. T1 resistant plants from each event used in the progeny testing were given unique identifiers and sampled for zygosity analyses of the dgt-28 gene. Zygosity data were used to assign 2 hemizygous and 2 homozygous replicates to each rate of glyphosate applied allowing for a total of 4 replicates per treatment. These plants were compared against wildtype Petite havana tobacco. All plants were sprayed with a track sprayer set at 187 L/ha. The plants were sprayed from a range of 560-4480 g ae/ha DURANGO DMA™. All applications were formulated in water with the addition of 2% w/v ammonium sulfate (AMS). Plants were evaluated at 7 and 14 days after treatment. Plants were assigned an injury rating with respect to overall visual stunting, chlorosis, and necrosis. The T1 generation is segregating, so some variable response is expected due to difference in zygosity.
Rates of DURANGO DMA™ ranging from 420-3360 g ae/ha glyphosate were applied to 2-3 leaf tobacco as previously described.

B1: TraP8: chimeric chloroplast transit peptide SEQ ID NO:3; N-terminus from Brassica napus EPSPS CTP, C-terminus from Brassica rapa (protein)
chain: MAQSSRICHGVQNPCVIISNLSKSNQNKSPFSVSLKTHQQQRRAYQISSWGLKKSNNGSVIRPVK
modifications: TraP8 chimeric chloroplast transit peptide
notes: N-terminus from Brassica napus EPSPS CTP, C-terminus from Brassica rapa
- Processing (cleavage) of transit peptide from YFP by Western blot [1]: processed
- % Injury Ave [2]: 9.3%
